Laboratory results from patent publication US20090099343A1.
Values joined by “and” are separate entries in the source; they are usually repeats but may differ in a detail not shown here. Equal values may be shown once.

What follows are binders tested against T1, PrP^Sc, pathogenic prion protein in brain homogenate of RML PrP^Sc+ Balb-c mice (mouse), P04925 (assay: bead pull-down from PrP^Sc+ mouse brain homogenate; ELISA).
T1 sequence (P04925 23-230 limits assumed): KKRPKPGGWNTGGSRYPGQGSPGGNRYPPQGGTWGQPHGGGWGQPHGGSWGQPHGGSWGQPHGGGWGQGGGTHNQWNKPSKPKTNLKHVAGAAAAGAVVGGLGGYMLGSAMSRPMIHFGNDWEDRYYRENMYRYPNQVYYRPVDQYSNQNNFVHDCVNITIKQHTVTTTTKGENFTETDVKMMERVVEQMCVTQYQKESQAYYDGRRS
KKRPKGGG (modifications not checked) [Peptide reagent SEQ ID NO:121] gave an ELISA A405nm of 0.509 A405nm.
KKRPKGGG (modifications not checked) [Peptide reagent SEQ ID NO:122] gave an ELISA A405nm of 0.503 A405nm.
KKRPKGGG (modifications not checked) [Peptide reagent SEQ ID NO:119] gave an ELISA A405nm of 0.61 A405nm.
With KKRPKGGG (modifications not checked) [Peptide reagent SEQ ID NO:120] the ELISA A405nm was 0.631 A405nm.

These binders were tested against T1, PrP^Sc, pathogenic prion protein in … (assay: bead pull-down, NaCl dissociation of bound PrP^Sc; Western blot).
With GGGKKKKKKKK (modifications not checked) [Peptide reagent SEQ ID NO:85] the recovery rate following 1.0 M NaCl elution was 40% and 50%.
GGGKKRPKPGG (modifications not checked) [Peptide reagent SEQ ID NO:68] was tested, and the recovery rate following 1.0 M NaCl elution was 40% and 50%.
